# Test results from publication PMC10375191, “Transformable Neuropeptide Prodrug with Tumor Microenvironment Responsiveness for Tumor Growth and Metastasis Inhibition of Triple‐Negative Breast Cancer” (Advanced Science, 2023).
# Starred links: 1 amine or outer side, 2 acyl side, 3 side chain; linkers in the order of their positions; H or OH if unused. Residues, ends and D or L forms follow the SMILES beside them. *: point of attachment. Doxorubicin(3'-N) = COc1cccc2c1C(=O)c1c(O)c3c(c(O)c1C2=O)C[C@@](O)(C(=O)CO)C[C@@H]3O[C@H]1C[C@H](N*)[C@H](O)[C@H](C)O1; Suc = O=C(CCC(=O)[*:2])[*:1]
# Key:
# [1] = test system: MDA‐MB‐231 cells; experiment: Transwell invasion assay (Matrigel); assay type: cell-based, human; conditions: MDA-MB-231, Matrigel transwell, 1 µg mL^−1 in lower chamber, 24 h, versus PBS group, n = 3
# Method: 1 × 10^6 MDA‐MB‐231 cells were suspended on the top chambers of the transwell with Matrigel. Cells were cultured in DMEM without FBS overnight. […] After incubation for 24 h, the cells on the upper wells were cautiously erased with a cotton swab. Cells on the lower surface were fixed with 4% PFA and stained with crystal violet. After multiple washing with PBS, the cells that passed through the membrane were recorded with a microscope (DFC 450C, Leica, Germany).
# [2] = Morphological transformation / particle size by DLS and TEM in PBS of different pH; assay type: physicochemical; conditions: DLS
# [3] = test system: MDA‐MB‐231 metastasis model; experiment: Anti-metastasis evaluation, MDA-MB-231 metastasis model; assay type: in vivo, mouse; conditions: MDA-MB-231-luc i.v. model
# Source text: All the animal experimental procedures were recognized and approved by the Regional Ethics Committee for Animal Experiments at Ningbo University, China (Permit NO. SYXK (Zhe) 2019‐0005). The triple‐negative breast cancer (TNBC) xenograft tumors were established on female BALB/c nude mice (≈15 g) by subcutaneous injection of MDA‐MB‐231 cells (5 × 10^6 cells in each mouse). TNBC metastasis models were constructed by injecting MDA‐MB‐231‐luc cells (1 × 10^5 cells in each mouse) through the tail vein to female BALB/c nude mice. The day that MDA‐MB‐231‐luc was injected was set as D0. In vivo imaging system (IVIS) (Lumina XRMS Ш, PerkinElmer, USA) was utilized to identify the tumor metastasis at D12.
# For the TNBC metastasis model, two kinds of treatments were developed. […] After seven times of injections, continued observation of the mice was carried out. […] In vivo imaging system (IVIS Lumina XRMS Ш, PerkinElmer, USA) was utilized again to estimate the tumor metastasis at D26. Meanwhile, the mice were sacrificed and the main organs (heart, livers, spleen, lung, and kidney) were separated for histological analysis.
# [4] = test system: healthy ICR mice; experiment: Maximum tolerated dose / acute toxicity study
# Source text: Animal survival of each group (n = 10, 5 female and 5 male) was continuously recorded for 14 days. Eventually, the evaluation and calculation of the median lethal dose (LD50) were completed with these collected data using the Bliss rule.
# [5] = test system: MCF‐10A cells; experiment: CCK-8 cell viability assay, MCF-10A; assay type: cell-based, human; conditions: 24 h
# Method: MDA‐MB‐231 cells were incubated in 96‐well plates for 24 h (1 × 10^4 cells per well). […] At the appointed time, 10 µL CCK‐8 solution was dropped into each well and further co‐incubated with treated cells for 2 h. The absorbance values at 450 nm were measured by an automated plate reader (iMark (168‐1130), Biorad, USA). The IC50 values were obtained from Microsoft Excel's FORECAST formula.
# mammary epithelial cell line MCF-10A after 24 h incubation. Data are presented as
# means ± standard deviations (n = 3).
# (1 picture or pasted object on this page, not shown here)
# [6] = test system: MDA‐MB‐231 cells; experiment: Wound healing experiment; assay type: cell-based, human
# Method: Wound healing culture inserts were tightly stuck on 12‐well plates and 2 × 10^4 MDA‐MB‐231 cells were seeded in the gap of the culture inserts to incubate for 24 h. […] After incubation for 12 and 24 h, the wound healing area was photographed by a microscope (DFC 450C, Leica, Germany).
# [7] = biological target: T1, matrix metalloproteinase‐9 (MMP‐9) (Homo sapiens, UniProt P14780); experiment: MMPs-responsive cleavage of DOX-P18 by MMP-9 (HPLC, MS, fluorescence); assay type: in vitro ADME
# T1 construct: purchased Novoprotein Scientific Inc. (Shanghai, China)
# T1 sequence (P14780 94-707): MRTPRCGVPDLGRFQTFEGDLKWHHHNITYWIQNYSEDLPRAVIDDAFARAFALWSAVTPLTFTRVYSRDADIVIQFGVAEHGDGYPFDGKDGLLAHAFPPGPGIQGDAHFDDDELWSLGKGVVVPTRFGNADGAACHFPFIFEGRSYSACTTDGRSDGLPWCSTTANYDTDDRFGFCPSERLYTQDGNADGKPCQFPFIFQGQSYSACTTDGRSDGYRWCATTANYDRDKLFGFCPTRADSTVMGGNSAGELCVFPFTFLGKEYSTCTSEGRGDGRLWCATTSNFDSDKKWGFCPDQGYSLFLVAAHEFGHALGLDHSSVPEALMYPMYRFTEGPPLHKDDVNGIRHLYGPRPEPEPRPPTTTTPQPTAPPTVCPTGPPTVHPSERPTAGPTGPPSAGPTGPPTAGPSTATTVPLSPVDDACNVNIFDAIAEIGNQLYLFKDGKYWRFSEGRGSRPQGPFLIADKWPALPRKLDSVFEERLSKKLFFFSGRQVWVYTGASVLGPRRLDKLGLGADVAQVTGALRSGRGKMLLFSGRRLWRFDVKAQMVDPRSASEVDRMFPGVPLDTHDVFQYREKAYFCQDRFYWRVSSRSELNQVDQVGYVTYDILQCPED
# Method: The enzymatic reaction process was monitored by HPLC at 6, 12, 24, and 72 h.
# Doxorubicin hydrochloride (DOX·HCl), trifluoroacetic acid (TFA), and anhydrous N,N-Dimethylformamide (DMF) were purchased from Aladdin (Shanghai, China).
# Thioanisole (TA), 1,2-ethanedithiol (EDT), and phenol were obtained from Macklin (Shanghai, China). 4-methylmorpholine (NMM), N,N’-diisopropylcarbodiimide (DIC), and 1-hydroxybenzotriazole (HOBt) were purchased from OKA (Beijing, China). Rink amide methylbenzhydrylamine (MBHA) resin, Wang resin and all Fmoc-protected amino acids were obtained from NJPeptide (Nanjing, China). Ethanol, diethyl ether, acetonitrile (ACN), and methanol were purchased from Sinopharm Chemical Reagent Co., Ltd (Shanghai, China). Piperidine, p-nitrophenol, and succinic anhydride (Succ) were obtained from Sigma-Aldrich (Shanghai, China). Recombinant human matrix metalloproteinase-2 (MMP-2) and matrix metalloproteinase-9 (MMP-9) produced by Novoprotein Scientific Inc. (Shanghai, China) are supplied as a 0.2 μm filtered buffer mixture of 20 mM Tris-HCl, 2 mM CaCl2, 150 mM NaCl, 0.05 % Brij 35 (w/v), pH 7.5, and their specific activity is >1300 pmol/min/µg as measured under the described conditions. All commercial reagents and HPLC solvents were used with […]
structure (smiles),measurement,setting,value
CC[C@H](C)[C@H](NC(=O)[C@@H]1CCCN1C(=O)[C@H](CC(N)=O)NC(=O)[C@H](CC(N)=O)NC(=O)[C@H](Cc1ccc(O)cc1)NC(=O)[C@H](Cc1c[nH]cn1)NC(=O)[C@H](CCCNC(=N)N)NC(=O)CNC(=O)[C@H](CCCNC(=N)N)NC(=O)[C@@H](NC(=O)CNC(=O)[C@H](CC(C)C)NC(=O)[C@@H]1CCCN1C(=O)CCC(=O)N[C@H]1C[C@H](O[C@H]2C[C@](O)(C(=O)CO)Cc3c(O)c4c(c(O)c32)C(=O)c2c(OC)cccc2C4=O)O[C@@H](C)[C@H]1O)C(C)C)C(=O)N[C@@H](Cc1c[nH]c2ccccc12)C(=O)N[C@@H](CCCNC(=N)N)C(=O)N[C@@H](CCC(N)=O)C(=O)N[C@@H](CCCNC(=N)N)C(=O)N[C@@H](Cc1ccc(O)cc1)C(N)=O [DOX‐P18] ({Doxorubicin(3'-N)-Suc}-PLGVRGRHYNNPIWRQRY-NH2),Inhibition on cell invasion,[1],50%
same,Aggregation state (particle size distribution),[2]; PBS buffer pH 7.4,nanoparticles could only be detected
same,Aggregation state (particle size distribution),"[2]; PBS, neutral and weakly acidic media (pH ≤ 6.5; 6.5, 6.0, 5.0)",monomolecular dispersion
same,"Lung metastasis, prevention schedule (histology D26)",[3]; 25 mg kg^−1 DOX-P18 (5 mg kg^−1 DOX) seven times every 2 days from D0,limited number
same,"Lung and bone metastasis, treatment schedule (histology D26)",[3]; 25 mg kg^−1 DOX-P18 (5 mg kg^−1 DOX) seven times every 2 days from D14,significant metastasis inhibition
same,Histological analysis of major organs,"[4]; 14 days after single dose, 40 mg kg^−1 DOX (or DOX equivalent)",no significant differences in major organs
same,Blood routine indexes,"[4]; 14 days after single injection, n = 3, DOX: WBC, PLT, PCT at 10 mg kg^−1, DOX-P18: all indexes, different doses",not significantly different
same,Improvement of biosafety (LD50 versus DOX),[4]; LD50 in DOX equivalents versus free DOX,67.8%
same,Single-dose median lethal dose (LD50),"[4]; single intravenous dose, 14 days, n = 10 per group, Bliss rule",221.5 mg/kg
same,"IC50 (cytotoxicity), in words",[5],higher
same,Wound healing rate,"[6]; MDA-MB-231, 5 µg mL^−1, 12 h, PBS group 50.8%",40.3%
same,Wound healing rate (coverage rate),"[6]; MDA-MB-231, 5 µg mL^−1, 24 h, PBS group defined as 100%",71.5%
same,Cleavage efficiency of MMP-9 relative to MMP-2,"[7]; 0.1 µg mL^−1 MMP-2 or MMP-9, 20 µg mL^−1 DOX-P18, 12 and 24 h, fluorescence intensity at 592 nm (Ex 488 nm)",about 10 times
same,Enzymatic cleavage by MMP-9,"[7]; 1 mg mL^−1 DOX-P18 with 1 µg mL^−1 MMP-9, 37 °C, HPLC at 6, 12, 24, 72 h, monitored at 500 nm, product DOX-P3 identified by MS",efficiently cleaved
